Reference: the NTF2 design screens of Basanta et al. (2020)

Assay: protease stability score; higher = more stable; yeast display proteolysis, trypsin and chymotrypsin;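 also: log10 excess protease needed over predicted unfolded state with 0 meaning unfolded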

| Sequence | protease stability score |
| --- | --- |
| DEQDDAHKAKEFLEAVVTGNEERLRRMVDPNARIHYGDQEYHGREKIVDLMIRWRERVDHFTIDRVHSHNGRVQMDAFFTHNGRTKRFVARVVVHNGKVKSIEYTDG | 0.017 |
| DEQDEVKTLLDEIRKALETNDRERLRELVDKDAHFEYGDKKYQGSEHAARQMVEEQKNIDSQSVQLRDVQIHNGQANVDVVIEYTHNGRKRTFDAKFRFKVENGRVKLVENVQS | 0.895 |
| DEQDLKKVREFVQAQEEGDEDKLRELMDPNARVRVGDHRINGMDEIVKTDKKEVDDIKLSITDLKMHVKGDHMKVRIHQIVNHNGRPHTKTVDVVAHRHNGRLKSMERQDTK | -0.122 |
| DEQDLNSVKENLKAIETNNPKRVKELLDKDARAQYGDKEVHGRDEIADQQRKEREDIDIRIDWKRMNIDNGRIHMEFEVQYNFNGKPLTNKVTMRNEAHNGSIKAMFWQLSEDQQRELDS | -0.374 |
| DEQDNEKARRIMDRGDPHELNRMADKDARVQVGDKTWHGRSQFEEFVKRFHDRVDHIEVKSVHVHGNEVRVDLVVVVNGHEARFIMVASVHNGHATSLSINVTDPRVEEVLRDIFD | 0.014 |
| DEQDQAKKFNDEVRKIFETGNFRQFARLLDKNVTAEVGDQEVHGKEQAHKWAEDVWRTFDHIHYNMVDVDVENGRVEVHVQLTYDHNGTTERRTYVMELKLSNGRLKIVHMKQG | 0.809 |
| DEQDQARKNVKTLANAIEDNDENQVHRLMDPNARLRIGDKDYHGREEAAHAMREIRETFDHIRIQVTRVRVEGDKINLIAKVNRNHNGRNEESEVDIQFVQDNGRARIVRLVDR | 0.554 |
| DEQDQARRIVRHLLSAIRNNDPHRFQNNVDENVTLQYGDKTYNGDEDVHKYIEQFKREQKNARLRLLRLRIDNGRIDVIVRLRADHNGKEIRQIIVFHLVVRNGQARVETAHEG | 1.17 |
| DEQDQLKLAERVLKAVNDNNPQKFEELADENATVKVGDKTWHGRSHAQEMIKRFKERVDSLEIKHIDNRGNRARVHLVLEHNGRTTEMSIVVTVENGRAKAVVVHTK | -0.133 |
| DEQEDRDMKKMYKNLQEGDDQRVADMADPNARWRVGDKTYHGKDSIRHWAKEVHDRMHFRIQSITVQNENGKVKVEIKWVTDENGKPVDQTVQVKAELHNGHIVDIDITTQS | 0.731 |
| DEQEDRDRLEEALHAVMTGDEDRLMELADPNVEIQIGDKTFHGNTEARKVVETLKRKVDHLRVEEITKRPGSAFVIAVMEVNGKQVTVTVRIQAENGRIVHVSMNPKQLQDLKS | 0.776 |
| DEQEERDFNRNMVEILQQGDEEKARTNMDKDAHATYGDREYHGREQLADLLKEFRDRVDHIEMKDYSVTNGRVNVVFVAVFDGKRVELHADIQFRNGRIKRMTFKFRNEEQQKKLER | 0.361 |
| DEQEHAKRVVRRLIDAFKDGDPKTYAQQLDPNVRIQIGDKEITGREKVREEFRTVRQRVDHVNLHVKRVDVNGDKIVVQIRVVRKHNGRTEQRTLVVEVRDHNGREVVKHVSFK | 0.884 |
| DEQEKAERLAKTAVEAYETNDPEVMRRLLPPDAEVRVGDKEIHGREENSRQVQRELDRVDRVQVSMKTVHVDGNKLNVVLELRVEHDGETDTREIVIIFDVRNGTIQAQEINIG | -0.05 |
| DEQELAEELFRDLTEAMKKGDPEQRKDLADEDVHQQVGDKTYHGREDNMKAMEELKRNYDSISIKLTSLSVHNGKVRIVFKVDFEHNGKTSTRRVVAHAYLQGDKVKIKKISEQ | 0.749 |
| DEQENEKNVKDVQHAMETGDEELMLRNAPPDVRMEIGDKTLRGREEVSKEFKKFAKQIDRHSIHSIRFRGDKFEINMVVTVNGRHAVVNIELQIHNGKVNSMRVDPHDLEQQKQ | -0.249 |
| DEQENKEIMRRVKEAFEHNDPDMFKKLFDEDATVEVGDKSFQGRDKIKEAMTQFKNQADRVRVDSVNVRGNKVDATVTADFNGKTASFKLEITWHNGKIKHMRINPEDNKKLQG | 0.951 |
| DEQEQAEELAKKMMENMETGDFDKRANQADPDARMEIGDKDVRGRETIASHQRELSDHIDHANATVLEVRVSNGDVEVRMQFRVQHNGRSRQEERIINATISGDKMRIKEFTQS | -0.116 |
| DEQEQAKDFARQLQKVFRYGDEERARQLADKHVKVNVGDKIFHGREKVQKWIREIKNRSDKYKIDIKSIRVKNGRITIEFKAQEEFNGERRRVTVNAKAKLDNGEIRLTSVDQK | 0.128 |
| DEQERAERLMEEMVRVLHTGDEKRLQQLADPNARFTIGDTRVHGSDEFARLLREHADNADSMQFRVKSIEVEGNHINIKFSFSVDINGRTESYTANIRIVEKGDKMQFHTQDMK | 0.402 |
